According to the RNAGym collection of RNA variant scans (doi:10.7554/elife.90254):

B1: LINE1-full (parent)
chain: UACGUAGGUGGUUUUCCCCUGAUAGUGCUAAGGGGGCCUGGAAGUUUGGACUGGGCAGAGCUCAACACAGCGUGGCAAAGUGGCUGUGGCUAGACUGCCUCUCUGGAUUCCUCGUCACUCAGCAGGGCAUCUCUGAGAGAAAUGCC

Variants of: B1
Test: self-cleavage, relative activity (ratio to wild type); higher = more cleavage; in vitro, sequencing; the parent is a self-cleaving ribozyme
U100C U134A gave a self-cleavage of 1.83. C101U U108C showed a self-cleavage of 1.37. With U104G U134C the self-cleavage was 1.39. For G105A A142G, the self-cleavage was 1.24. With U109C A136G the self-cleavage was 1.75. In the case of U102C C113U, the self-cleavage is reported as 1.48. Variant U102C C113A has a self-cleavage of 1.63. U102C C113G gave a self-cleavage of 1.08. U102A U115C gave a self-cleavage of 1.88. Variant U102A U115G has a self-cleavage of 2.51. Work on U102C U132A yielded a self-cleavage of 1.34. Work on U100C C131G yielded a self-cleavage of 2.35. U100C C131U gave a self-cleavage of 2.27. In the case of C103U U119C, the self-cleavage is reported as 1.7. In the case of U104C A138U, the self-cleavage is reported as 1.87. With U104C A138G the self-cleavage was 1.87. For A107U U132A, the self-cleavage was 1.88. U104A A140G gave a self-cleavage of 0.47. With G105U A124U the self-cleavage was 0.22. U102C C116U gave a self-cleavage of 1.72. Variant U102G A121G has a self-cleavage of 0.59. C101A U115A gave a self-cleavage of 1.36. Variant U100C G144C has a self-cleavage of 1.95. With U100C G144A the self-cleavage was 1.07. A107G U132C gave a self-cleavage of 1.62. Work on U104A G122C yielded a self-cleavage of 1.48. With C103U A140G the self-cleavage was 1.44. U104C U112C gave a self-cleavage of 1.66. With G106A A142U the self-cleavage was 1.29. C101U A107G showed a self-cleavage of 1.73. With G106A U112A the self-cleavage was 1.64. U102A C103U showed a self-cleavage of 1.41. U109A U112A showed a self-cleavage of 1.35. For U109A U112C, the self-cleavage was 1.08. With U109C A124U the self-cleavage was 1.64. Variant U109C A124C has a self-cleavage of 1.41. Work on G106A U134G yielded a self-cleavage of 1.86. Work on U108A G122U yielded a self-cleavage of 0.97. U109A C111U showed a self-cleavage of 1.56. Variant U104A U143A has a self-cleavage of 0.88. Variant U108C A136U has a self-cleavage of 1.93. U104A A117U gave a self-cleavage of 1.31. Work on U100G A138G yielded a self-cleavage of 1.27. With U104C G127A the self-cleavage was 1.47. For U100C G127U, the self-cleavage was 1.84. U100C G127A gave a self-cleavage of 1.9. Work on U109A G125A yielded a self-cleavage of 1.34. With A107C G114A the self-cleavage was 1.74. For C101U U132A, the self-cleavage was 2.01. With U104C A121G the self-cleavage was 1.56. With U104C A121U the self-cleavage was 1.59. Work on U102A U132C yielded a self-cleavage of 1.69. U108C U134A gave a self-cleavage of 2.21. U108C U134C gave a self-cleavage of 1.57. For U108C A129G, the self-cleavage was 1.57. With U108C A129U the self-cleavage was 1.89. With U108C A129C the self-cleavage was 1.69. With G106U U132C the self-cleavage was 1.31. For U102A G125A, the self-cleavage was 1.51. Variant G105A U115C has a self-cleavage of 1.54. With A107G A140U the self-cleavage was 0.94. Variant U108G U134C has a self-cleavage of 2.7. A107G A141G gave a self-cleavage of 1.64. With A107G A141C the self-cleavage was 1.51. U109C A117G gave a self-cleavage of 1.7. For C101U A124G, the self-cleavage was 2.06. Variant A107U U143A has a self-cleavage of 1.48. In the case of U108C C128U, the self-cleavage is reported as 1.78. For U102C U104C, the self-cleavage was 0.95. For U102C U104G, the self-cleavage was 1.6. With U102A A142G the self-cleavage was 1.9. In the case of A107G A124U, the self-cleavage is reported as 1.27. In the case of U102C U130C, the self-cleavage is reported as 1.24. Work on U108A A124U yielded a self-cleavage of 1.35. U102C G125U gave a self-cleavage of 1.23. Variant G105A G127U has a self-cleavage of 1.31. Work on U108A yielded a self-cleavage of 1.24. U108G showed a self-cleavage of 1.5. Work on U108C yielded a self-cleavage of 1.64. U109A U134A showed a self-cleavage of 0.68. For U109A U134C, the self-cleavage was 1.67. U109A U134G showed a self-cleavage of 1.25. U100C U130G showed a self-cleavage of 1.02. For U100C U130A, the self-cleavage was 1.85. With C103A A129G the self-cleavage was 1.59. In the case of U104A U112A, the self-cleavage is reported as 1.4. Work on U104A U112C yielded a self-cleavage of 1.32. With U100C C113U the self-cleavage was 1.7. In the case of U108A G114A, the self-cleavage is reported as 1.09. Work on U102C G144A yielded a self-cleavage of 1.15. For U102C G144C, the self-cleavage was 1.17. U102C U119A gave a self-cleavage of 1.45. U102C U119C showed a self-cleavage of 1.69. U108C U130A showed a self-cleavage of 2.75. In the case of U102C G137A, the self-cleavage is reported as 1.8. For U102C A136G, the self-cleavage was 1.34. U100C U119A showed a self-cleavage of 2.09. With U104C U108A the self-cleavage was 2.04. Variant U109A G122A has a self-cleavage of 1.63. For U102C U112A, the self-cleavage was 1.44. In the case of U102C U112C, the self-cleavage is reported as 1.53. With U102C U112G the self-cleavage was 1.15. For U104A G114U, the self-cleavage was 1.09. U108C G114A showed a self-cleavage of 1.71. Work on U104G A140C yielded a self-cleavage of 0.28. In the case of U100G G137A, the self-cleavage is reported as 0.77. In the case of U100C U109C, the self-cleavage is reported as 1.37. U100C U109A showed a self-cleavage of 1.77. In the case of G106U A117U, the self-cleavage is reported as 1.26. In the case of U102C G106A, the self-cleavage is reported as 1.19. U108G A140G showed a self-cleavage of 0.29. With A107G U108A the self-cleavage was 1.47. With A107G U108G the self-cleavage was 1.53. With C101A A138G the self-cleavage was 1.36. A107C gave a self-cleavage of 1.56. Work on A107G yielded a self-cleavage of 1.46. A107U gave a self-cleavage of 1.46. In the case of U104C U115A, the self-cleavage is reported as 0.22. Variant U108C U112C has a self-cleavage of 1.74. In the case of U108C U112A, the self-cleavage is reported as 1.94. Work on G106U G126A yielded a self-cleavage of 1.15. U108A U112C showed a self-cleavage of 2.53. For A107U A124U, the self-cleavage was 1.61. For A107U A124G, the self-cleavage was 1.29. Variant U100G U104A has a self-cleavage of 1.17. With U102A U143A the self-cleavage was 1.08. U102A U143C showed a self-cleavage of 1.25. Variant U108A U132A has a self-cleavage of 1.24. Work on U108A U132C yielded a self-cleavage of 1.65. In the case of U108A A138C, the self-cleavage is reported as 1.32. In the case of U104G C123U, the self-cleavage is reported as 1.25. Variant U109A A129U has a self-cleavage of 2.02. U102A U108C showed a self-cleavage of 1.14. U100C U143G gave a self-cleavage of 2.85. U100C U143A showed a self-cleavage of 1.15. Work on C103A U130C yielded a self-cleavage of 1.9. Variant U102A G105U has a self-cleavage of 1.09. U108C U132A gave a self-cleavage of 2.04. U108C U132C showed a self-cleavage of 1.83. For U109A G139A, the self-cleavage was 1.49. With A107U A138U the self-cleavage was 2.59. Work on U104C A129U yielded a self-cleavage of 1.73. Variant U104C A129G has a self-cleavage of 2.04. Variant C101U U102G has a self-cleavage of 0.3. Variant U102C C131A has a self-cleavage of 1.48. For A107G U109A, the self-cleavage was 1.83. For U102A A121U, the self-cleavage was 1.44. U104C A117U showed a self-cleavage of 1.73. U104G U130A gave a self-cleavage of 0. A107G U112C showed a self-cleavage of 1.68. A107G U112A gave a self-cleavage of 1.45. A107C U143C gave a self-cleavage of 1.67. In the case of A107G A136G, the self-cleavage is reported as 1.31. U108G U143C gave a self-cleavage of 1.14. Variant U104C G125U has a self-cleavage of 1.68. G105A U134C gave a self-cleavage of 1.44. G105A U134A gave a self-cleavage of 1.54. Variant G106A U115C has a self-cleavage of 1.43. With U102G A129G the self-cleavage was 0.88. Work on A107G G126A yielded a self-cleavage of 1.71. For U108A A129U, the self-cleavage was 1.92. Work on U108C A140U yielded a self-cleavage of 1.66. In the case of G106A A124G, the self-cleavage is reported as 1.81. For A107G A129U, the self-cleavage was 1.84. With U102A G114A the self-cleavage was 1.57. U104C U109G showed a self-cleavage of 1.53. For U104C U109C, the self-cleavage was 1.39.
